Results reported in patent US20070286861A1, “Immunoglobulins” (published 2007).
Positions count from the first letter of the chain named. Like-named read-outs stand apart in the source and are kept apart here.

Key:
[1] = biological target: T1, human Oncostatin M (hOSM) (human); test: gp130 inhibition ELISA (antibody pre-incubated with OSM; OSM bound to plate-coated gp130-Fc detected)
T1 chain: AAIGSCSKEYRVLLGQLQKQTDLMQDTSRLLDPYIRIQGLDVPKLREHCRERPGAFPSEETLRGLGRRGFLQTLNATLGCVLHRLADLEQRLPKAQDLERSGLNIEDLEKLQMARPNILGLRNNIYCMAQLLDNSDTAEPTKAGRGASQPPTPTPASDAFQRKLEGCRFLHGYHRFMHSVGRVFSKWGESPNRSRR

[2] = biological target: T1, human Oncostatin M (hOSM)
[3] = biological target: T1, human Oncostatin M (hOSM); test: gp130 ELISA
[4] = biological target: T2, cynomolgus monkey OSM (cOSM) (cynomolgus monkey); test: gp130 ELISA
T2 chain: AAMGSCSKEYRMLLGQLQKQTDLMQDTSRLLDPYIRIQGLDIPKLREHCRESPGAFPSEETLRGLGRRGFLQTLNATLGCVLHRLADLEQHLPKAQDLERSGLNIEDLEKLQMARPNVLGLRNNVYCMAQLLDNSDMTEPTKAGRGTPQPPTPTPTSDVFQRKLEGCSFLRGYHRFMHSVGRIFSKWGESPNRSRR

[5] = biological target: T1, human Oncostatin M (hOSM)
[6] = biological target: T2, cynomolgus monkey OSM (cOSM)
[7] = biological target: T3, glycosylated human OSM produced in CHO cells (human)
T3 sequence (chain, glycosylated (CHO cell glycosylated)): T1 chain

[8] = biological target: T4, glycosylated human OSM produced in CHO cells (human, glycosylated (CHO cell glycosylated)); test: gp130 inhibition ELISA (Table 4; OSM taken as CHO produced hOSM of FIG. 17)
T4 chain: T1 chain

[9] = biological target: T1, human Oncostatin M (hOSM); test: gp130 inhibition ELISA
[10] = biological target: T2, cynomolgus monkey OSM (cOSM); test: gp130 inhibition ELISA
[11] = biological target: T1, human Oncostatin M (hOSM); test: gp130 inhibition ELISA, CHO supernatant
[12] = biological target: T2, cynomolgus monkey OSM (cOSM); test: gp130 inhibition ELISA, CHO supernatant
[13] = biological target: T1, human Oncostatin M (hOSM); test: gp130 inhibition ELISA, CHO supernatant; legend: NA: inhibition is less than 50%
[14] = biological target: T2, cynomolgus monkey OSM (cOSM); test: as above

B1: 10D3 murine antibody (antibody, V domains shown)
VH: EVQLQQSGPELVKPGASVKISCKASGYIFTDYNMDWVKQSHGKKLEWIGDINPNNGGTIDNQKFKDKATLTVDKSSSTAYMELRSLTSEDTAVYYCARGIYYYGSHYFDYWGQGTTLTVSS
VL: QIVLTQSPAIMSASPGEKVTMTCSATSSVSVMHWFQKKSGTSPKRWIYDTSKLASGVPTRFSGSGSGTSYSLTISSMEAEDTATYYCQQWSSNPLTFGSGTKLELK
B1 was tested. Which IC50 [1] did it give?
Its IC50 is 0.107 µg/mL.

And the IL-6 release from KB cells (KB cell assay), IC50 [2]?
Its IL-6 release from KB cells (KB cell assay), IC50 is 0.114 µg/mL.

B2: 10D3 chimaeric antibody (antibody, V domains shown)
VH: B1 VH
VL: B1 VL
Which IC50 [3] does the source give for B2 here?
The IC50 was 0.032 µg/mL.

And the IC50 [4]?
The IC50 was 0.246 µg/mL.

And the IC50 [1]?
Its IC50 is 0.057 µg/mL.

What about the IL-6 release from KB cells (KB cell assay), IC50 [2] of the same binder?
The IL-6 release from KB cells (KB cell assay), IC50 was 0.107 µg/mL.

B3: Humanised antibody 10D3 DLE (antibody, V domains shown)
VH: EVQLVQSGAEVKKPGASVKVSCKASGYIFTDYNMDWVRQAPGQKLEWIGDINPNNGGTIDNQKFKDRATLTVDKSTSTVYMELSSLRSEDTAVYYCARGIYYYGSHYFDYWGQGTLVTVSS
VL: EIVLTQSPSSLSASVGDRVTITCSATSSVSVMHWFQKKPGKAPKRWIYDTSKLASGVPSRFSGSGSGTDYTLTISSLQPEDFATYYCQQWSSNPLTFGGGTKVDIKR
Which IC50 [3] does the source give for B3 here?
Its IC50 is 0.021 µg/mL.

And the IC50 [4]?
Its IC50 is 0.059 µg/mL.

What about the IL-6 release from KB cells (KB cell assay), IC50 [5] of the same binder?
The IL-6 release from KB cells (KB cell assay), IC50 was 0.205 µg/mL.

What about the IL-6 release from KB cells (KB cell assay), IC50 [6] of the same binder?
The IL-6 release from KB cells (KB cell assay), IC50 was 0.07 µg/mL.

B4: 15E10 murine antibody (antibody, V domains shown)
VH: QVQLKQSGPGLVQPSQSLSITCTVSGFSLTNYGVHWVRQSPGKGLEWLGVIWRGGSTDYNAAFMSRLSITKDNSRSQVFFKMNSLQADDTAIYYCAKSPNSNFYWYFDVWGTGTTVTVSS
VL: QIVLTQSPTIMSASPGEKVTMTCSGSSSVSYMYWYQEKPGSSPRLLIEDTSNLASGVPARFSGSGSGTSYSLTISRMEAEDAATYYCQQWSSYPPTFGSGTKLEIK
What does the source list for B4?
IL-6 release from KB cells (KB cell assay), IC50 [7]: 0.053 µg/mL; IC50 [1]: 0.059 µg/mL; IL-6 release from KB cells (KB cell assay), IC50 [2]: 0.195 µg/mL; IC50 [8]: 0.009 µg/mL

B5: 15E10 chimaeric antibody (antibody, V domains shown)
VH: B4 VH
VL: B4 VL
For B5, which IC50 [9] is on record?
The IC50 was 0.07 µg/mL.

What about the IC50 [10] of the same binder?
Its IC50 is 0.06 µg/mL.

What about the IL-6 release from KB cells (KB cell assay), IC50 [7] of the same binder?
The IL-6 release from KB cells (KB cell assay), IC50 was 0.079 µg/mL.

And the IC50 [1]?
The IC50 was 0.036 µg/mL.

And the IL-6 release from KB cells (KB cell assay), IC50 [2]?
Its IL-6 release from KB cells (KB cell assay), IC50 is 0.11 µg/mL.

What about the IC50 [8] of the same binder?
Its IC50 is 0.019 µg/mL.

B6: humanised 15E10 antibody B3L2 (wild type Fc) (antibody, V domains shown)
VH: QVQLVESGGGVVQPGRSLRLSCAASGFSLTNYGVHWVRQAPGKGLEWVAVIWRGGSTDYNAAFMSRFTISKDNSKNTLYLQMNSLRAEDTAVYYCAKSPNSNFYWYFDVWGRGTLVTVSS
VL: EIVLTQSPATLSLSPGERATLSCSGSSSVSYMYWYQQKPGQAPRLLIEDTSNLASGIPARFSGSGSGTDYTLTISNLEPEDFAVYYCQQWSSYPPTFGQGTKLEIKR
Which results are given for B6?
IL-6 release from KB cells (KB cell assay), IC50 [7]: 0.123 µg/mL; IC50 [8]: 0.035 µg/mL

B7: humanised 15E10 antibody B4L2 (antibody, V domains shown)
VH: B6 VH with F67L
VL: B6 VL
For B7, which IC50 [11] is on record?
The IC50 was 0.048 µg/mL.

What about the IC50 [12] of the same binder?
The IC50 was 0.04 µg/mL.

B8: humanised 15E10 antibody B1L2 (antibody, V domains shown)
VH: B6 VH with K71R, K97R
VL: EIVLTQSPATLSLSPGERATLSCSGSSSVSYMYWYQQKPGQAPRLLIEDTSNLASGIPARFSGSGSGTDYTLTISNLEPEDFAVYYCQQWSSYPPTFGQGTKLEIK
Which IC50 [11] does the source give for B8 here?
The IC50 was 0.334 µg/mL.

And the IC50 [12]?
The IC50 was 0.11 µg/mL.

B9: humanised 15E10 antibody B4L1 (antibody, V domains shown)
VH: B6 VH with F67L
VL: B8 VL with E48Y, Y70F
What does the source list for B9?
% inhibition [13]: < 50%; IC50 [12]: 0.167 µg/mL

B10: humanised 15E10 antibody B1L1 (antibody, V domains shown)
VH: QVQLVESGGGVVQPGRSLRLSCAASGFSLTNYGVHWVRQAPGKGLEWVAVIWRGGSTDYNAAFMSRFTISRDNSKNTLYLQMNSLRAEDTAVYYCARSPNSNFYWYFDVWGRGTLV
VL: B8 VL with E48Y, Y70F
What does the source list for B10?
% inhibition [13]: < 50%; % inhibition [14]: < 50%
